Two molecules from patent US20200282012A1 (published 2020) can be followed below.

Experiment [1] has as its target T1, human complement component C3 (human, UniProt P01024 23-1663). The experiment in a line: cell-based or functional assay.
The target in experiment [2] is T1, human complement component C3. The experiment in a line: cell-based or functional assay. The source holds these as a separate data set.

B1: (CA28-AEEAc)8-PEG40k (peptide)
peptide: ICVWQDWGAHRCTK
modifications: N-terminal acetyl; 1-methyl-tryptophan at position 4; disulfide Cys2-Cys12; AEEAc spacer between Thr13 and Lys; Lys side chain coupled to one arm of an eight-arm 40 kD PEG (SUNBRIGHT HGEO-400GS); C-terminal amide
Consider B1, for which the “IC50 as a function of CA28 concentration, classical complement inhibition assay (C3b deposition ELISA, human plasma)” value in experiment [1] is 1.93 µM.

B2: CA28-2GS-BF (peptide)
peptide: ICVWQDWGAHRCTK
modifications: N-terminal acetyl; 1-methyl-tryptophan at position 4; disulfide Cys2-Cys12; AEEAc spacer between Thr13 and Lys; Lys side chain coupled to one end of a bifunctional linear 40 kD PEG of the GS type (glutaryl; amide and ester linkage); C-terminal amide
Consider B2, for which, in experiment [2], the “% Parent, Q1 (Type III cells with C3d deposition), modified Ham's assay, CA28-2GS-BF 50 ug/ml” value stood at 0.01%; the “% Parent, Q2 (Type I and II cells with C3d deposition), modified Ham's assay, CA28-2GS-BF 50 ug/ml” value came out at 0.01%; the “% Parent, Q3 (Type III cells without significant C3d deposition), modified Ham's assay, CA28-2GS-BF 50 ug/ml” value was 61.5%; the “% Parent, Q4 (Type I and II cells without significant C3d deposition), modified Ham's assay, CA28-2GS-BF 50 ug/ml” value amounted to 38.5%.
